Assays:
[1] = target: T1, NXE’992, chimeric peptide (pyrazole-QRPRL[AIB]S[PipALA]VPFP) (UniProt Q9ULZ1, pyrazole on the N-terminus; AIB at position 6; PipALA at position 8); assay: SPR; pH 6.0
[2] = target: T1, NXE’992, chimeric peptide …; assay: SPR; pH 7.5

Kd [1]: 21 nM
Kd [2]: 3.3 nM
B1: human apelin stabilised receptor (NxStaR) (receptor)
chain: MEEGGDFDNYYGADNQSECEYTDWKSSGALIPAIYMLVFLLGTTGNGLVLWTVFRSSREKRRSADIFIASLAVADLTFVVTLPLWAVYTYRDYDWPFGTFFCKLSSYLIFVAMYASVFCLTGLSFDRYLAIVRPVANARLRLRVSGAVATAVLWVLAALLAMPVMVLRTTGDLENTTKVQCYMDYSMVATVSSEWAWEVGLGVSSTMVGFVVPLTIMLTCYFFAAQTIAGHFRKERIEGLRKRRRLLSIIVVLVVTFALCWMPYHLVKTLYMLGSLLHWPCDFDLFLMNIFPYCTCIAYVNSCLNPFLYAFFDPRFRQACTSMLCCGQSRCAGTSHSSSGEKSASYSSGHSQGPGPNMGKGGEQMHEKSIPYSQETLVVD

Source: PMC11680790 (2024)
